Test results from patent publication US10351618B2, “UTI fusion proteins” (Takeda Pharmaceutical Company Limited, priority 2014, dated 2019).
Each block holds one molecule with its values, some of them ahead of it.

Key:
[1] = Thermal stability by differential scanning calorimetry; format: physicochemical
Protocol: Assays were performed to measure the thermal and real-time stability. […] Thermal stability was measured by differential scanning calorimetry on a Microcal VP-DSC calorimeter. Samples were prepared at 1 mg/ml and buffered in 0.25 mM Tris pH7.4, 0.13M NaCl and 0.0027M KCl. Samples were heated from 25° C. to 110° C. at a rate of 200° C. per hour. UTI-Fc1 was compared to Application Publication Number CN 103044554 A, SEQ ID's 2 and 6, which comprise an IgG2 or IgG1 Fc domain respectively.

[2] = target: T1, caspase-1 (Homo sapiens, UniProt P29466); experiment: Protease inhibition at Reaction Biology Corporation: caspase-1; format: biochemical; conditions: FIG. 7
T1 sequence (P29466 120-404): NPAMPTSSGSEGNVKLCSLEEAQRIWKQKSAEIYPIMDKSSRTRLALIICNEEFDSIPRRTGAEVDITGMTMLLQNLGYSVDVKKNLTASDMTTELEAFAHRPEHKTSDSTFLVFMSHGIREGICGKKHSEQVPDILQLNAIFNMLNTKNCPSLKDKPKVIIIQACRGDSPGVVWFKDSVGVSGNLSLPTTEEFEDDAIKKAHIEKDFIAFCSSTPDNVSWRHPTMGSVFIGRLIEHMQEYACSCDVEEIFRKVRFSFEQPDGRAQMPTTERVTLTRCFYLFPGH
Protocol: (§1) Measurement of the inhibition of other proteases by UTI-Fc1 was also measured at Reaction Biology Corporation (Malvern, Pa.). […] FIG. 7 lists the inhibitory constants of UTI-Fc1 for a variety of proteases.

[3] = target: cathepsin C (Homo sapiens, UniProt P53634); experiment: Protease inhibition at Reaction Biology Corporation: cathepsin C; format: biochemical; conditions: FIG. 7
Chain of cathepsin C (P53634 25-463, species assumed): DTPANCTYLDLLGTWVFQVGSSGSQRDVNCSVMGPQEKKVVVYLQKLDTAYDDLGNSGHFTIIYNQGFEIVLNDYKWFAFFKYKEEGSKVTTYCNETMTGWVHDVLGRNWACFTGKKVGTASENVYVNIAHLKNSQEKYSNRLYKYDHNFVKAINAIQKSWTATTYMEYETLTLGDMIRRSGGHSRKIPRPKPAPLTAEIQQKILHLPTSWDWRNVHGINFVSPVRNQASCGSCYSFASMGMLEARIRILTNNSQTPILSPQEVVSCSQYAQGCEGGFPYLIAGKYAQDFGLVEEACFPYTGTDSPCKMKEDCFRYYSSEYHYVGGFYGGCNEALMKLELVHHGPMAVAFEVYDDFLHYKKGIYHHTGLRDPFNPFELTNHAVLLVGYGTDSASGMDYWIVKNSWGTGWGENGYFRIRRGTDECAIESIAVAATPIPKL
Protocol: as §1

[4] = target: plasmin (Homo sapiens, UniProt P00747); experiment: Protease inhibition at Reaction Biology Corporation: plasmin; format: biochemical; conditions: FIG. 7
Chain of plasmin (P00747 581-810 limits assumed, species assumed): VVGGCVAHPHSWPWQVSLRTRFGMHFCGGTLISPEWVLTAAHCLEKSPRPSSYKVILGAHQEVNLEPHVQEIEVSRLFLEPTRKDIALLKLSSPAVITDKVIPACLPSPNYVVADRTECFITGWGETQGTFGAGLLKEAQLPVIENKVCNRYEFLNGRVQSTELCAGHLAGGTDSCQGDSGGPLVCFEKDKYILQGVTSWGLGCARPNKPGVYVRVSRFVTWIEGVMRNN
Chain of plasmin (P00747 97-580 partner limits assumed, species assumed): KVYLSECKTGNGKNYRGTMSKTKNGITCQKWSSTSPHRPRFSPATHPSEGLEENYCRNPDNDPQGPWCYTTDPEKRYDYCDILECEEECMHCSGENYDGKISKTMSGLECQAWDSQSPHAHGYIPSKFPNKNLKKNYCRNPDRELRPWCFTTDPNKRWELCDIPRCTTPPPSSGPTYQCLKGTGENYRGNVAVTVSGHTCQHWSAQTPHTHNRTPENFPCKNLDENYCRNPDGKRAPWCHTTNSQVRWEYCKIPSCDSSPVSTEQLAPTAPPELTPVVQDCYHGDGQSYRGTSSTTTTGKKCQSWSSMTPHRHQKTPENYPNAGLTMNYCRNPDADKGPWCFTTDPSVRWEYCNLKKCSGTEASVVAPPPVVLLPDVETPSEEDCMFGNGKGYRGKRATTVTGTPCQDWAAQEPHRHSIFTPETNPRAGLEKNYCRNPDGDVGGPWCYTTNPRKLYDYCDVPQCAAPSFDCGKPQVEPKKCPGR
Protocol: as §1

[5] = Real-time stability (SEC, A280, PAGE) in TBS pH7.4; format: physicochemical
Protocol: Real-time stability measurements were performed by incubating SEQ ID NO:1 (UTI-Fc1) or CN 103044554 A, SEQ IDS 2 or 6 at 2-8° C., and 40° C. for 0, 2 and 4 weeks in TBS, pH7.4 buffer. The formation of higher and lower molecular weight species was determined by size exclusion chromatography (SEC) and visualized with polyacrilamide gel electrophoresis (PAGE). The concentration of each UTI-Fc was also monitored by determination of the absorbance of the solution at 280 nm (A280), using extinction coefficients determine by the protein composition. The UTI-Fc molecules produce two, partially overlapping peaks, when analyzed by SEC. The percentage peak area in each UTI-Fc sample measured by SEC is reported in Table 9 at time=0 weeks, 2 weeks, and 4 weeks. Also shown is the percentage change in concentration measured by A280 (% A (mg/ml)) at time=2 weeks and 4 weeks. The initial TO concentration of each sample was UTI-Fc1=33.5 mg/mL, CN 103044554 A SEQ ID 2=8.5 mg/mL, and CN 103044554 A SEQ ID 6=5.6 mg/mL. A variability of 3% is typical for SEC and 15% for individual UV measurements.

[6] = tested on: C5a; experiment: LPS induced C5a in C3H mice (complement inhibition in vivo); design: species or system C3h/HeJ mice; conditions: 4 hours post LPS dose, p<0.05, FIG. 10
Protocol: UTI-Fc1 (SEQ ID NO:1) affects on the complement system were measured in vivo. Female, C3h/HeJ mice were purchased from Jackson Laboratories. Animals are dosed according to the experimental design Table 10. Animals were injected i.p. (100 ul/mouse) 15 minutes post dose with LPS at time zero. Animals were euthanized at 2 and 4 hours post LPS injection by CO2 overdose and blood was collected by cardiac puncture. Blood was transferred to serum separator microtubes and allowed to clot at room temperature for 30 minutes. Subsequently, microtubes were centrifuged at 12,000 rpm for 5 minutes and serum was removed and aliquoted to a 96 well plate. Rosmarinic acid was used as a positive control and used as 3 mg/ml in saline. The 96 well plate was frozen at −20° C. Serum samples were analyzed for C5a content by duoset. Statistical significance was determined using Prism graphing software and effects were considering statistically significant if p<0.05.

[7] = tested on: chymotrypsin; experiment: Protease inhibition at Reaction Biology Corporation: chymotrypsin; format: biochemical; conditions: FIG. 6, FIG. 7
Protocol: as §1

[8] = target: T2, papain (Carica papaya, UniProt P00784); experiment: Protease inhibition at Reaction Biology Corporation: papain; format: biochemical; conditions: FIG. 7
T2 sequence (P00784 134-345): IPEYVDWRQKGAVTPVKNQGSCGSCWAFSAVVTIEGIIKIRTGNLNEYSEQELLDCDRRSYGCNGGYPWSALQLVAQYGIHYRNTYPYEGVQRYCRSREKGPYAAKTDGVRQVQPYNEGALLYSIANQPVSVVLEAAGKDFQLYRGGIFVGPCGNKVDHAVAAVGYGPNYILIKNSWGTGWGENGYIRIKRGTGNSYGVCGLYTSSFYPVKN
Protocol: as §1

[9] = target: T3, Human pancreatic trypsin (Homo sapiens, UniProt P07477); experiment: In vitro enzymatic assay for trypsin inhibition; format: biochemical; conditions: human pancreatic trypsin 1.5 nM, 15 min pre-incubation, FIG. 5
T3 construct: purchased Athens Research & Technology, Inc
Protocol: Solutions of UTI-Fc1 at various concentrations 200 nM final concentration) are prepared in 50 mM HEPES, 150 mM NaCl, 20 mM CaC12 and 0.01% Brij L23, pH 7.4. Activity assays were performed in Greiner 384-well small volume plates. All steps were conducted at ambient temperature.
Human pancreatic trypsin (1.5 nM final concentration) (Athens Research & Technology, Inc) was added to the dilutions then pre-incubated with the test UTI-Fc for 15 minutes. Next, the reaction was initiated with 100 μM (final) of substrate N[…]-Benzoyl-L-arginine-7-amido-4-methylcoumarin hydrochloride SIGMA B7260-25 MG. The reaction mixture total volume was 20 µl. Trypsin activity was determined via fluorescence. For example, the fluorescence intensity was determined in kinetic mode over a window of 30 to 60 minutes on a BMG PHERAstar FS or PHERAstar plus using an excitation wavelength of 370 nm and an emission wavelength of 470 nm. Trypsin activity was linearly proportional to the change in fluorescence observed (final−initial). […]
Where: Fi was the observed fluorescence at a given concentration of test UTI-Fc.
Fp was the observed fluorescence of a positive control i.e., the average value of 2 to 6 assays in the absence of Trypsin.
Fn was the observed fluorescence of a negative control i.e., the average value of 2 to 6 assays of Trypsin in the presence of vehicle alone. […]

[10] = target: Factor Xa (Homo sapiens, UniProt P00742); conditions: full-length UTI (Morishita et al. 1994); cited from earlier work
Chain of Factor Xa (P00742 235-488 limits assumed): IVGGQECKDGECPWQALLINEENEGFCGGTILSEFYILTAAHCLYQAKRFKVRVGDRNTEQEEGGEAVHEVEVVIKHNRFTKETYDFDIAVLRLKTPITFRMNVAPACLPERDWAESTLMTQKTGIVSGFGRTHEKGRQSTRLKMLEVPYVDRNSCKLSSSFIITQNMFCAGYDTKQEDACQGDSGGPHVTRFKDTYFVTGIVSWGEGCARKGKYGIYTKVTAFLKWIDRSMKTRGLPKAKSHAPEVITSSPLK
Chain of Factor Xa (P00742 41-179 partner limits assumed): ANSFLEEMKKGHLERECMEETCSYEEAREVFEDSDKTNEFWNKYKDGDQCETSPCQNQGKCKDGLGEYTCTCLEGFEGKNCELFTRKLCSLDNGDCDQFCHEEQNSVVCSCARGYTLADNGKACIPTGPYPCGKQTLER

[11] = rodents and humans (Fries et al 2000); cited from earlier work
[12] = tested on: trypsin-induced IL-6 production in BEAS2B cells; experiment: Inhibition of trypsin-induced IL-6 release in BEAS2B cells; format: cell-based, human; conditions: 100 nM trypsin, 8 hours, FIG. 8
Protocol: UTI-Fc1 inhibition of cytokine release was measure in a cell-based assay. BEAS2B cells were seeded at the density of 20,000 cells/well in 96 well plate and cultured using complete BEGM Bullet Kit (Lonza) in CO2 incubator. After 24 hours, the culture media were replaced with plain DMEM for starvation and cells were cultured overnight. Then cells were incubated with fresh plain DMEM containing 100 nM trypsin with various concentrations of human urine UTI or recombinant UTI-Fc1 proteins. After 8 hours, culture supernatants were collected and IL-6 protein levels were assessed using human IL-6 DuoSet (R&D Systems).

[13] = target: plasma kallikrien (Homo sapiens, UniProt P03952); conditions: full-length UTI (Morishita et al. 1994); cited from earlier work
Chain of plasma kallikrien (P03952 20-638): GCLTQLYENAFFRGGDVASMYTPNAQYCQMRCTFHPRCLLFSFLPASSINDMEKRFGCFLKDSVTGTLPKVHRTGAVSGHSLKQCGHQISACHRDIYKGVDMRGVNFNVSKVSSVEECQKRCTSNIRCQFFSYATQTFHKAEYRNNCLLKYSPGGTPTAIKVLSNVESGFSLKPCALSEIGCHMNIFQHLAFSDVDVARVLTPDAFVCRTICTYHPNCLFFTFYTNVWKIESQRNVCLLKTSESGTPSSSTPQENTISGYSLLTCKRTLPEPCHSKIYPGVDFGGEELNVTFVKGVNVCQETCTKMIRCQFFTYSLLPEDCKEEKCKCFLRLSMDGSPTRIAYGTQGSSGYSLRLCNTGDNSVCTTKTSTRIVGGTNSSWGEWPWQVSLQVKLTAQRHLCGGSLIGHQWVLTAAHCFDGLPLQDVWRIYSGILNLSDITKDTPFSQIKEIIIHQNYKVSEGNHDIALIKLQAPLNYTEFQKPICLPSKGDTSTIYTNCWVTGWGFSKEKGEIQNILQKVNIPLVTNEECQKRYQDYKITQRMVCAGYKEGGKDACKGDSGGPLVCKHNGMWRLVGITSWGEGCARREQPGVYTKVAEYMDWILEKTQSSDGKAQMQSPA

[14] = 1 mg/ml, Tris pH7.4, 25° C. to 110° C. at 200° C. per hour

Molecule: UTI-Fc1: UTI-Fc fusion protein, human UTI domain linked to wild type IgG1 Fc, SEQ ID NO: 1
thermal stability compared to the UTI fusion proteins of CN 103044554A [1]: greater thermal stability | DSC Tm1 [1, 14]: 70.86 °C | DSC Tm2 [1, 14]: 85.79 °C | inhibition of caspase-1 [2]: weak inhibition | inhibition of cathepsin C [3]: weak inhibition | inhibition of plasmin [4]: moderately | SEC percentage peak area Peak1 ([5]; 0 weeks): 35.7% | SEC percentage peak area Peak2 ([5]; 0 weeks): 64.3% | % Δ (mg/ml), percentage change in concentration by A280 ([5]; 2 weeks at 2-8° C.): 9.2% | SEC percentage peak area Peak1 ([5]; 2 weeks at 2-8° C.): 36.2% | SEC percentage peak area Peak2 ([5]; 2 weeks at 2-8° C.): 63.8% | % Δ (mg/ml), percentage change in concentration by A280 ([5]; 2 weeks at 40° C.): 0.2% | SEC percentage peak area Peak1 ([5]; 2 weeks at 40° C.): 37.1% | SEC percentage peak area Peak2 ([5]; 2 weeks at 40° C.): 62.9% | % Δ (mg/ml), percentage change in concentration by A280 ([5]; 4 weeks at 2-8° C.): 1.2% | SEC percentage peak area Peak1 ([5]; 4 weeks at 2-8° C.): 36.1% | SEC percentage peak area Peak2 ([5]; 4 weeks at 2-8° C.): 63.9% | % Δ (mg/ml), percentage change in concentration by A280 ([5]; 4 weeks at 40° C.): 11.9% | SEC percentage peak area Peak1 ([5]; 4 weeks at 40° C.): 36.8% | SEC percentage peak area Peak2 ([5]; 4 weeks at 40° C.): 63.2% | serum C5a ([6]; 20 mg/kg iv): significantly reduced | serum C5a ([6]; 50 mg/kg iv): significantly reduced | serum C5a ([6]; 100 mg/kg iv): significantly reduced | inhibition of chymotrypsin [7]: moderately | inhibition of papain [8]: weak inhibition

IC50 [9]: ~3 nM
B1: UTI: Urinary Trypsin Inhibitor, protease inhibitor of about 40 kD present in human urine and blood (protein)
chain: AVLPQEEEGSGGGQLVTEVTKKEDSCQLGYSAGPCMGMTSRYFYNGTSMACETFQYGGCMGNGNNFVTEKECLQTCRTVAACNLPIVRGPCRAFIQLWAFDAVKGKCVLFPYGGCQGNGNKFYSEKECREYCGVPGDGDEELLRFSN
inhibition of Factor Xa [10]: does not show inhibition | half-life [11]: 4 to 30 min | IC50 of trypsin-induced IL-6 production [12]: 0.40 µg/mL | inhibition of plasma kallikrien [13]: does not show inhibition
